Changes are numbered by the printed parent chain.
Legend:
[1] = target: hRSV FTM- NN protein (membrane anchorless form of the Long fusion protein, 70 kDa) (hRSV strain Long); experiment: SPR (Biacore T100), FTM- NN amine-coupled, 1:1 Langmuir fit
[2] = target: hRSV FTM- NN protein (membrane anchorless form of the Long fusion protein, 70 kDa) (hRSV strain Long); experiment: binding ELISA on immobilised FTM- protein; detection with rabbit anti-VHH and HRP goat anti-rabbit
[3] = substrate: F protein of hRSV strain Long (hRSV strain Long); experiment: cell-based or functional assay
[4] = substrate: F protein of hRSV strain Long (hRSV strain Long); experiment: binding ELISA on coated hRSV (Hytest), anti-VHH detection
[5] = target: hRSV FTM- NN protein (membrane anchorless form of the Long fusion protein, 70 kDa) (hRSV strain Long); experiment: competition ELISA on coated FTM- NN; competitor biotinylated Synagis Fab
[6] = substrate: F protein of Long escape mutant R7C2/1 (K272E in antigenic site II) (hRSV strain Long escape mutant); experiment: ELISA on extract of HEp-2 cells infected with R7C2/1
[7] = target: hRSV FTM- NN protein (membrane anchorless form of the Long fusion protein, 70 kDa) (hRSV strain Long); experiment: SPR (Biacore) on Ftm-NN protein; Table B-5 run (selected NC41 variants), separate from Table B-1
[8] = target: hRSV FTM- NN protein (membrane anchorless form of the Long fusion protein, 70 kDa) (hRSV strain Long); experiment: SPR (Biacore) on Ftm-NN protein
[9] = substrate: F protein of hRSV strain B-1 (hRSV strain B-1); experiment: cell-based or functional assay
[10] = target: hRSV FTM- NN protein (membrane anchorless form of the Long fusion protein, 70 kDa) (hRSV strain Long); experiment: Alphascreen competition: FTM- NN (0.3 nM) bridged by biotinylated Synagis Fab and 101F Fab acceptor beads

B1: Nanobody 15H8 (VHH)
VHH: EVQLVESGGGLVQAGGSLRLSCAASGRSFSNYVLGWFRQAPGKEREFVAAISFRGDSAIGAPSVEGRFTISRDNAKNTGYLQMNSLVPDDTAVYYCGAGTPLNPGAYIYDWSYDYWGRGTQVTVSS
- Kd [1]: 16 nM
- koff [1]: 0.021 s⁻¹
- kon [1]: 1.2e+06 M⁻¹ s⁻¹
- EC50 (read off the curve) [2]: 1000 pM
- RSV neutralization IC50 [3]: 200 nM
- EC50 [4]: 0.83 nM
- EC50 [5]: 39 nM

B2: Nanobody 191E4 (VHH)
VHH: EVQLVESGGGLVQAGGSLRLSCAASGPTFSADTMGWFRQAPGKEREFVATIPWSGGIAYYSDSVKGRFTMSRDNAKNTVDLQMNSLKPEDTALYYCAGSSRIYIYSDSLSERSYDYWGQGTQVTVSS
- Kd [1]: 0.27 nM
- koff [1]: 0.00015 s⁻¹
- kon [1]: 570000 M⁻¹ s⁻¹
- binding (% reactivity relative to Long wild type) [6]: > 75%
- EC50 [4]: 0.083 nM

B3: RSV116 (NC41-15GS-NC41) (bispecific antibody)
chain: EVQLVESGGGLVQAGGSLSISCAASGGSLSNYVLGWFRQAPGKEREFVAAINWRGDITIGPPNVEGRFTISRDNAKNTGYLQMNSLAPDDTAVYYCGAGTPLNPGAYIYDWSYDYWGRGTQVTVSSGGGGSGGGGSGGGGSEVQLVESGGGLVQAGGSLSISCAASGGSLSNYVLGWFRQAPGKEREFVAAINWRGDITIGPPNVEGRFTISRDNAKNTGYLQMNSLAPDDTAVYYCGAGTPLNPGAYIYDWSYDYWGRGTQVTVSS
- EC50 (read off the curve) [2]: 300 pM

B4: Nanobody NC23 (VHH)
VHH: EVQLVESGGGLVQPGGSLRLSCAASGRTFSSIAMGWFRQAPGKEREFVAAISWSRGRTFYADSVKGRFIISRDDAANTAYLQMNSLKPEDTAVYYCAVDTASWNSGSFIYDWAYDHWGQGTQVTVSS
- Kd [1]: 0.92 nM
- koff [1]: 0.00074 s⁻¹
- kon [1]: 800000 M⁻¹ s⁻¹
- RSV neutralization IC50 [3]: 144 nM
- EC50 [4]: 0.1 nM
- EC50 [5]: 2.3 nM

B5: Nanobody 15B3 (VHH)
VHH: EVQLVESGGGLVQPGGSLRLSCAASGLTLDYYALGWFRQAPGKEREGVSCISSSDHSTTYTDSVKGRFTISWDNAKNTLYLQMNSLKPGDTAVYYCAADPALGCYSGSYYPRYDYWGQGTQVTVSS
- Kd [1]: 0.67 nM
- koff [1]: 0.00027 s⁻¹
- kon [1]: 410000 M⁻¹ s⁻¹
- binding (% reactivity relative to Long wild type) [6]: > 75%
- EC50 [4]: 0.058 nM

B6: Nanobody NC41 (VHH)
VHH: EVQLVESGGGLVQAGGSLSISCAASGGSLSNYVLGWFRQAPGKEREFVAAINWRGDITIGPPNVEGRFTISRDNAKNTGYLQMNSLAPDDTAVYYCGAGTPLNPGAYIYDWSYDYWGRGTQVTVSS
- Kd [1]: 8.1 nM
- koff [1]: 0.0067 s⁻¹
- kon [1]: 820000 M⁻¹ s⁻¹
- EC50 (read off the curve) [2]: 1000 pM
- Kd [7]: 4 nM
- Neutralization IC50 (first assay) [3]: 202 nM
- Neutralization IC50 (second assay) [3]: 122 nM
- RSV neutralization IC50 [3]: 58 nM
- koff [8]: 0.0067 s⁻¹
- kon [8]: 1.7e+06 M⁻¹ s⁻¹
- EC50 [4]: 0.41 nM
- EC50 [5]: 32 nM

B7: RSV106 (7B2-15GS-7B2) (VHH)
chain: EVQLVESGGGLVQAGDSLRLSCAASGRTFSSYAMGWFRQAPGKEREFVAAISWSDGSTYYADSVKGRFTISRDNAKNTVYLQMNSLKPEDTAVYYCAADLTSTNPGSYIYIWAYDYWGQGTQVTVSSGGGGSGGGGSGGGGSEVQLVESGGGLVQAGDSLRLSCAASGRTFSSYAMGWFRQAPGKEREFVAAISWSDGSTYYADSVKGRFTISRDNAKNTVYLQMNSLKPEDTAVYYCAADLTSTNPGSYIYIWAYDYWGQGTQVTVSS
- binding (% reactivity relative to Long wild type) [6]: 4.4%

B8: RSV407 (NC41-15GS-NC41-15GS-NC41) (VHH)
chain: EVQLVESGGGLVQAGGSLSISCAASGGSLSNYVLGWFRQAPGKEREFVAAINWRGDITIGPPNVEGRFTISRDNAKNTGYLQMNSLAPDDTAVYYCGAGTPLNPGAYIYDWSYDYWGRGTQVTVSSGGGGSGGGGSGGGGSEVQLVESGGGLVQAGGSLSISCAASGGSLSNYVLGWFRQAPGKEREFVAAINWRGDITIGPPNVEGRFTISRDNAKNTGYLQMNSLAPDDTAVYYCGAGTPLNPGAYIYDWSYDYWGRGTQVTVSSGGGGSGGGGSGGGGSEVQLVESGGGLVQAGGSLSISCAASGGSLSNYVLGWFRQAPGKEREFVAAINWRGDITIGPPNVEGRFTISRDNAKNTGYLQMNSLAPDDTAVYYCGAGTPLNPGAYIYDWSYDYWGRGTQVTVSS
- EC50 (read off the curve) [2]: 200 pM
- Neutralization IC50 [3]: 94.1 pM
- Neutralization, ratio to Synagis [3]: 59 fold
- Neutralization IC50 [9]: 660 pM
- Neutralization, ratio to Synagis [9]: 3 fold

B9: Synagis® Fab (Fab, part only; not given: Constant regions, biotin sites, V domains shown, not shown: another chain or arm of the molecule)
VH: QVTLRESGPALVKPTQTLTLTCTFSGFSLSTSGMSVGWIRQPPGKALEWLADIWWDDKKDYNPSLKSRLTISKDTSKNQVVLKVTNMDPADTATYYCARSMITNWYFDVWGAGTTVTVSS
VL: DIQMTQSPSTLSASVGDRVTITCKCQLSVGYMHWYQQKPGKAPKLLIYDTSKLASGVPSRFSGSGSGTEFTLTISSLQPDDFATYYCFQGSGYPFTFGGGTKLEIK
- IC50 [10]: 0.597 nM

B10: RSV400 (7B2-15GS-7B2-15GS-7B2) (bispecific antibody)
chain: EVQLVESGGGLVQAGDSLRLSCAASGRTFSSYAMGWFRQAPGKEREFVAAISWSDGSTYYADSVKGRFTISRDNAKNTVYLQMNSLKPEDTAVYYCAADLTSTNPGSYIYIWAYDYWGQGTQVTVSSGGGGSGGGGSGGGGSEVQLVESGGGLVQAGDSLRLSCAASGRTFSSYAMGWFRQAPGKEREFVAAISWSDGSTYYADSVKGRFTISRDNAKNTVYLQMNSLKPEDTAVYYCAADLTSTNPGSYIYIWAYDYWGQGTQVTVSSGGGGSGGGGSGGGGSEVQLVESGGGLVQAGDSLRLSCAASGRTFSSYAMGWFRQAPGKEREFVAAISWSDGSTYYADSVKGRFTISRDNAKNTVYLQMNSLKPEDTAVYYCAADLTSTNPGSYIYIWAYDYWGQGTQVTVSS
- EC50 (read off the curve) [2]: 300 pM
- binding (% reactivity relative to Long wild type) [6]: 13%

B11: RSV404 (15H8-15GS-15H8-15GS-15H8) (VHH)
chain: EVQLVESGGGLVQAGGSLRLSCAASGRSFSNYVLGWFRQAPGKEREFVAAISFRGDSAIGAPSVEGRFTISRDNAKNTGYLQMNSLVPDDTAVYYCGAGTPLNPGAYIYDWSYDYWGRGTQVTVSSGGGGSGGGGSGGGGSEVQLVESGGGLVQAGGSLRLSCAASGRSFSNYVLGWFRQAPGKEREFVAAISFRGDSAIGAPSVEGRFTISRDNAKNTGYLQMNSLVPDDTAVYYCGAGTPLNPGAYIYDWSYDYWGRGTQVTVSSGGGGSGGGGSGGGGSEVQLVESGGGLVQAGGSLRLSCAASGRSFSNYVLGWFRQAPGKEREFVAAISFRGDSAIGAPSVEGRFTISRDNAKNTGYLQMNSLVPDDTAVYYCGAGTPLNPGAYIYDWSYDYWGRGTQVTVSS
- EC50 (read off the curve) [2]: 300 pM

B12: Nanobody 191D3 (VHH)
VHH: EVQLVESGGGLVQAGGSLRLSCEASGRTYSRYGMGWFRQAPGKEREFVAAVSRLSGPRTVYADSVKGRFTISRDNAENTVYLQMNSLKPEDTAVYTCAAELTNRNSGAYYYAWAYDYWGQGTQVTVSS
- Kd [1]: 1.9 nM
- koff [1]: 0.0028 s⁻¹
- kon [1]: 1.5e+06 M⁻¹ s⁻¹
- RSV neutralization IC50 [3]: 253 nM
- EC50 [4]: 0.15 nM
- EC50 [5]: 5.9 nM

B13: Nanobody 1E4 (VHH)
VHH: B12 VHH with Y29F, R31S, S106P, A112T
- Kd [1]: 1.6 nM
- koff [1]: 0.0013 s⁻¹
- kon [1]: 800000 M⁻¹ s⁻¹
- RSV neutralization IC50 [3]: 380 nM
- EC50 [4]: 0.066 nM
- EC50 [5]: 4.5 nM

B14: Nanobody 7B2 (VHH)
VHH: EVQLVESGGGLVQAGDSLRLSCAASGRTFSSYAMGWFRQAPGKEREFVAAISWSDGSTYYADSVKGRFTISRDNAKNTVYLQMNSLKPEDTAVYYCAADLTSTNPGSYIYIWAYDYWGQGTQVTVSS
- Kd [1]: 1.1 nM
- koff [1]: 0.00065 s⁻¹
- kon [1]: 570000 M⁻¹ s⁻¹
- EC50 (read off the curve) [2]: 300 pM
- RSV neutralization IC50 [3]: 91 nM
- EC50 [4]: 0.09 nM
- EC50 [5]: 1.9 nM

Source: patent publication US20150118233A1
